The text below walks through data of the RNAGym collection of RNA variant scans (doi:10.1021/acssynbio.7b00057).

B1: Pistol ribozyme (parent)
chain: GGGUCGUUGUUCCAUAAUCGCGUGGAUAUGGCACGCAAGUUUCUACCGGGCACCGUAAAUGUCCGACUGGAGCCGUUCGGGCGGCUAUAAACAGACCUCAGGCCCGAAGCGUGGCGGCACCUGCCGCCGGUGGUAAAAAAGAUCGGAAGAGCACACGUCU

This data set covers variants of B1. As to the kind of experiment: aptazyme ON/OFF ratio, guanine; higher = stronger switching; co-transcriptional cleavage with and without guanine.
For U7G U8C U11A, the “aptazyme ON/OFF ratio” value came to 1.39.

U7G G9C U10G C12A: the “aptazyme ON/OFF ratio” value was found to be 1.65. Next, U7G U8G U10C U11G C12G: 1.43; U7G U8G U10C U11G C12A: 1.41. With U7G U8C G9C U11G C12G C13G, the “aptazyme ON/OFF ratio” value is 1.12.

As for G9C U10C C12G C13G, the “aptazyme ON/OFF ratio” value was 1.09.

Take U7A U8G G9U U10A U11C C12G C13A: the “aptazyme ON/OFF ratio” value was 1.14.

In the case of U7C U10C U11C C13A, the “aptazyme ON/OFF ratio” value is 1.07. Next, U11C C12A C13G: 1.43; U7A U8G G9U U10G U11A C12A C13A: 1.16; U7C U8A G9A U10G U11C C13U: 1. The result for U7C U8G G9C C12G reads 1.28. Next, U7C U8C G9C U10G U11C C12A C13A: 1.13. With U8C G9A U10G U11C C12A C13G, the “aptazyme ON/OFF ratio” value was determined as 1.1. Next, U7C U8C G9A U10G C12U C13A: 1.15; U7C U8A G9C U10C U11C C12U C13G: 1.03; U7A G9C U10C U11G C13U: 1.08. Next, G9A U10A U11C: 1.08. Turning to U7G U8C G9A U10C C12G C13G, the “aptazyme ON/OFF ratio” value was determined as 1.19. The result for U8G G9U U10A U11G C12U reads 1.24. Next, U7G U8G G9C U10C U11C C12A C13G: 1.14. Next, U7A U8G U10A U11A C13U: 1.1. Regarding U7G U8C U10G U11C C12A C13A, the “aptazyme ON/OFF ratio” value worked out at 1.38. The result for U8A U10G C12A C13U reads 1.23. Next, G9A U10C U11G C12G: 1.18.

With U7G G9C U10C U11A C12G, the “aptazyme ON/OFF ratio” value turned out to be 1.31.

Regarding U7C U8G G9U U11A C12A, the “aptazyme ON/OFF ratio” value is 1.52. The result for U7G U8C G9C U10C U11A reads 1.39. The result for U7G U8C G9C U10C U11G reads 1.05. Next, U7G G9C U10C U11C C13G: 1.04; U7A U8C G9C U10C U11C C12G C13U: 1.07; U7G G9U C12U C13G: 1.31.

As to U7C U8A G9U U10C U11G C12U C13G, the “aptazyme ON/OFF ratio” value is 1.13. Next, U7A G9U U10G U11A C13G: 1.08; U7G U8G G9C U10A U11C C12A C13G: 1.06; U7A U8C U10A U11G C12A C13A: 1.17. The result for U7G U10C U11A C12G reads 1.18. The result for U7A U8G G9A U10G U11A C12G reads 1.28. With U7G G9A U10C C13G, the “aptazyme ON/OFF ratio” value was 1.08. The result for U8A G9U U10A U11G C12G reads 1.24.

Regarding U8C G9A U10A U11A C12U, the “aptazyme ON/OFF ratio” value was determined as 1.35. Next, U7C U8G G9U U10A U11G C13A: 1.13; U7C U8A U10G U11A C13A: 1.11. The result for U7A U8G G9A U11C C12G C13A reads 1.32; that for U8A G9A U10G U11G C12U, 1.2; that for U10G U11A C12A C13U, 1.27. As for U7A G9A U10A C12A, the “aptazyme ON/OFF ratio” value worked out at 1.3.

For the variant U7G U8G G9U U10G U11A C13U, the “aptazyme ON/OFF ratio” value was found to be 1.19. The result for U7G U8G G9A U10G U11A C12A reads 1.07. Next, U8A G9U U10C U11C C12U C13U: 1.04. Next, U7C U10G U11G C13G: 1.13; U7A U10G U11A C12A C13U: 1.08; U8A U10G U11C C12G C13G: 1.25. For the variant U8G G9C U10G U11G C12U C13U, the “aptazyme ON/OFF ratio” value is 1.28.

On to U7C U8G G9A U10C U11C C12G C13U, for which the “aptazyme ON/OFF ratio” value is 1.07. Take U7A U10G C12A C13A: the “aptazyme ON/OFF ratio” value turned out to be 1.16. The result for U7A U8C G9C U10C U11G C12A reads 1.13. For U8C G9U U10C U11G C12A C13G, the “aptazyme ON/OFF ratio” value was found to be 1.17.

Turning to U7G U8A G9C U10C, the “aptazyme ON/OFF ratio” value is 2.1. U8C G9A U10C U11G: the “aptazyme ON/OFF ratio” value is 1.19. Next, U7C U8C G9U U10G U11A C12A C13A: 1.2. The result for U7G U8A G9A U11C C12G C13A reads 1.08; that for U7C G9U U10G C12U, 1.39; that for U8C G9U U11G C12G, 1.2. With U7C U8A G9C U10C C12G C13U, the “aptazyme ON/OFF ratio” value worked out at 1.07. Next, U7C U8A G9C U11A C12G: 1.12; U7C U8G U10C: 1.34; U7G G9C U10G U11A C12A C13U: 1.17. For the variant U7G U8A G9A U10G U11C C12U C13A, the “aptazyme ON/OFF ratio” value is 1.1.

On to U7C U8A G9A U10G U11A C13A, for which the “aptazyme ON/OFF ratio” value amounted to 1.04.

Take U7C U8A G9C U10A U11C C12A C13A: the “aptazyme ON/OFF ratio” value worked out at 1.19. Next, U7G U8C G9U C12A C13U: 1.2. Consider U8A U10C U11A C13U, for which the “aptazyme ON/OFF ratio” value came out at 1.07. The result for U8C U10G U11A C12A C13G reads 1.15; that for U7A U8C G9C U10C U11G C13U, 1.04. As to U7G U8G G9U U11A C12U C13G, the “aptazyme ON/OFF ratio” value came out at 1.28. The result for U7A U8G G9C U11C C12U C13A reads 1.41; that for U7G G9C U10A C13U, 1.16; that for U7C G9U U11G C13U, 1.15. The result for U7C G9A U10A U11A C12U C13G reads 1.25; that for U7G U8G G9A U10C U11C C12G C13G, 1.03. Next, U7G G9U U10C C12A: 2.03. As for U7A U8A G9A U11C C12A C13A, the “aptazyme ON/OFF ratio” value was 1.17.
